Assay [1] addresses T1, recombinant GPC2-hFc fusion protein (human, UniProt Q8N158 24-553).
T1 construct: range 24-553; Made in 293T cells with an IL-2 secretion signal (not part of the secreted protein); biotinylated for the Octet assay; also called GPC2 protein; recombinant human GPC2; not shown: human IgG Fc (hFc) at the C terminus
T1 sequence (looked up): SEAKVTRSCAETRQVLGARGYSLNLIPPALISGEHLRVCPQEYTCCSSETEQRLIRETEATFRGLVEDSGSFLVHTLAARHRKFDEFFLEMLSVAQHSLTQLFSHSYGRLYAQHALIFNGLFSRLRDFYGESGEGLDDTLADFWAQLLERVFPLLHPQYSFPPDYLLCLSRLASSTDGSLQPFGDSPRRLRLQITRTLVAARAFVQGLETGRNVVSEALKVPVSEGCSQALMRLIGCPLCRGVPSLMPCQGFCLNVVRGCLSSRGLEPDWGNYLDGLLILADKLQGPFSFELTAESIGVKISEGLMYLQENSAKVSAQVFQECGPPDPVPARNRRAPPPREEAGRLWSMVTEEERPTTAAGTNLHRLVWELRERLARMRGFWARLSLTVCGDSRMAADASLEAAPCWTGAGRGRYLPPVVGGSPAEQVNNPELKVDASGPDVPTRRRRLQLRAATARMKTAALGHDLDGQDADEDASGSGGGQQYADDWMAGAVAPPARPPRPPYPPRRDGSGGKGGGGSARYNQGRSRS
As to the kind of experiment: Octet RED96 BLI, biotinylated GPC2-hFc on streptavidin biosensors, 30 °C.

In assay [2] the target is T1, recombinant GPC2-hFc fusion protein. As to the kind of experiment: Octet RED96 biolayer interferometry, biotinylated GPC2-hFc on streptavidin biosensors, LH7 at 1000, 500 and 100 nM.
Procedure: Briefly, all experiments were performed at 30° C. and reagents were prepared in 0.1% BSA, 0.1% Tween20 PBS, pH 7.4 buffer. […] Data analysis was performed using the Fort\tilde{e}Bio analysis software provided with the instrument.
For assay [3] the target is unchanged. As to the kind of experiment: ELISA, coated GPC2-hFc, detection with anti-Pseudomonas exotoxin A antibody. (ELISA stands for enzyme-linked immunosorbent assay.)
Procedure: Then a series of diluted immunotoxins were added to each well. Anti-Pseudomonas exotoxin A antibody (Sigma-Aldrich) and HRP-conjugated secondary antibody (Jackson Immunoresearch) were used to detect binding. EC₅₀ values were determined by Prism 6.0 software (GraphPad).
The target is the same in assay [4]. As to the kind of experiment: ELISA on coated GPC2-hFc, detection with anti-Pseudomonas exotoxin A antibody and HRP secondary.
The target of the next assay is T2, recombinant mouse GPC2 (mouse, UniProt Q8BKV1 22-556, limits assumed).
T2 sequence (looked up): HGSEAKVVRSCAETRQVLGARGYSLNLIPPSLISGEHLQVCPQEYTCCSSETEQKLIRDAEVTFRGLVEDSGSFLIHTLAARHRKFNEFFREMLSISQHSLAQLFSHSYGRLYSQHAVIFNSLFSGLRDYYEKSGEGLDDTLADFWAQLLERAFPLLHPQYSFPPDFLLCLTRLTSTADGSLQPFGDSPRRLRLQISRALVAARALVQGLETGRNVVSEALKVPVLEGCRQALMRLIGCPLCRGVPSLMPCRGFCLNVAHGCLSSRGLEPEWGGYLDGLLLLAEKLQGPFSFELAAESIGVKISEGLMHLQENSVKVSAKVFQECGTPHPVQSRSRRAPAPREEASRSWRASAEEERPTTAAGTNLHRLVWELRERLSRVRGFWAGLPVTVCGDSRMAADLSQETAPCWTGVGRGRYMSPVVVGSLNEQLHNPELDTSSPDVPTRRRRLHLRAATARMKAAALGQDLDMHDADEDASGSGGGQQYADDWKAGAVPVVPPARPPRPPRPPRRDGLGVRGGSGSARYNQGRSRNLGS
The assay can be described thus: monoclonal phage ELISA on recombinant glypicans.

The target of another assay is T3, recombinant human GPC1 (human, UniProt P35052 24-530, limits assumed).
T3 sequence (looked up): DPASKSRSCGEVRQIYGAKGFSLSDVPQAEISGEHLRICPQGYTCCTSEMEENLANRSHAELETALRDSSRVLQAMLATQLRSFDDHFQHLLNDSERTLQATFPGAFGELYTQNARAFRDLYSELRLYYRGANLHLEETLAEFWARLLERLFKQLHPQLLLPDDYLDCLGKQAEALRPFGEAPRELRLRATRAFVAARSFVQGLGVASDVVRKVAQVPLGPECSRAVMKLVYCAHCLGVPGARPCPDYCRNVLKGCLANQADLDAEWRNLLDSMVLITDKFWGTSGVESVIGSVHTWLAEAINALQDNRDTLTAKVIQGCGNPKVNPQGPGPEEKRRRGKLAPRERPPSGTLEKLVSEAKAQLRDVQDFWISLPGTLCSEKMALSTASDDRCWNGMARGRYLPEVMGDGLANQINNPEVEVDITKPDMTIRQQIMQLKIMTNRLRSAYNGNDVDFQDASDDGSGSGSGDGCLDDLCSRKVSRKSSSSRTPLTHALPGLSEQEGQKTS
The assay can be described thus: monoclonal phage ELISA on recombinant glypicans.

For another assay, the target named is recombinant human GPC3 (human, UniProt P51654 25-559, limits assumed). As to the kind of experiment: monoclonal phage ELISA on recombinant glypicans.
Assay [5] has as its target T1, recombinant GPC2-hFc fusion protein. As to the kind of experiment: monoclonal phage ELISA, coated GPC2-hFc vs BSA.
Procedure: (§1) Both plate and phage were blocked with 3% skim milk in PBS/0.05% Tween-20 for 1 hour at room temperature. Then pre-blocked phage supernatant was added to the plate. Binding was detected by HRP-conjugated mouse anti-M13 antibody (GE Healthcare).

10 molecules from patent US20200216558A1 (US Dept. of Health and Human Services, published 2020) can be followed below.

Sequence of recombinant human GPC3 (P51654 25-559 limits assumed): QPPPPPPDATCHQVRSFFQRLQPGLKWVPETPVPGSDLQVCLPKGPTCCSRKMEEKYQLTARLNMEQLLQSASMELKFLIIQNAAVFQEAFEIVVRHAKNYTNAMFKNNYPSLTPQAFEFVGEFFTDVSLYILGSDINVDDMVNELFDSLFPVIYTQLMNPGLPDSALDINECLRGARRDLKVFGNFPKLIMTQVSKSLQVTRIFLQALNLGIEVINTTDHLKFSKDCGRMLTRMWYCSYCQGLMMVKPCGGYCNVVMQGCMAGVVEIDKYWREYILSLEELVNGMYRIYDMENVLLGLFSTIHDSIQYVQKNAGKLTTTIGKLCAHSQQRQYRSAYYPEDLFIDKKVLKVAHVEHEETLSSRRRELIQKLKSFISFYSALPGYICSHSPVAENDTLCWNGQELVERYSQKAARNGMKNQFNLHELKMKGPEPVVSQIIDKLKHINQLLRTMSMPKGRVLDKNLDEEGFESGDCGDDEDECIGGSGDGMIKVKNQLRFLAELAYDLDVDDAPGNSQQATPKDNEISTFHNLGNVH
Procedure for recombinant human GPC1: as §1
Procedure for recombinant human GPC3: as §1
Procedure for recombinant mouse GPC2: as §1

B1: LH7-Fc fusion protein (Fc fusion)
chain: QVQLVQSGGGLVQPGGSLRLSCAASDFYFYDYEMSWVRQAPGKGLEWIGTVSYSGSTYYNPSLKSRVTISRDNSKNTLYLQMNTLRAEDTAMYYCARGYSYDDSRYFDYWGQGTLVTVSS
notes: Soluble LH7 as used in Octet, flow cytometry and HEK293 Supertopflash assays; also called LH7 antibody; LH7 single domain antibody; not shown: Fc: antibodies were fused with either human Fc (hFc) or mouse IgG Fc (mFc); which one was used in this assay, its subcla
Regarding B1, the Kd (commonly the concentration at which binding is half-saturated) in assay [1] turned out to be 9.8 nM. In addition, in assay [2], the koff – broadly, the rate constant with which the complex falls apart – turned out to be 0.00052 s⁻¹ and the kon (as a rule, the rate constant with which the complex forms) worked out at 53100 M⁻¹ s⁻¹.

B2: LH7-PE38 monomeric immunotoxin (other)
VH: B1 chain
Turning to B2, the half-maximal effective concentration (EC50) (commonly the concentration that produces a half-maximal response) in assay [3] came to 18 nM. In assay [4], the EC50 was determined as 18.4 nM and the EC50 (read off the curve) (in general, the midpoint of the concentration-response curve) was ~1 µg/mL.

B3: VH single domain antibody LH7 (phage clone) (VHH)
VHH: B1 chain
notes: Human VH single domain
As to B3, the binding result with recombinant mouse GPC2, with recombinant human GPC1 and with recombinant human GPC3 was “no binding” each time. Moreover, the “fold OD450 nm on GPC2-hFc over BSA” value in assay [5] is ≥ 5 fold.

B4: LH1-PE38 (other)
VH: QVQLVQSGGGLVQPGGSLRLSCAASDFDFAAYEMSWVRQAPGKGLEWIGEINHSGSTTYNPSLKSRVTISRDNSKNTLYLQMNTLRAEDTAVYYCATAVHYYDSSGYYHDAFDIWGQGTLVTVSS
notes: One of the three immunotoxins of group m11; also called LH1-PE38 immunotoxin
As for B4, in assay [4], the EC50 is 4.55 nM and the “EC50 (read off the curve)” value was ~0.2 µg/mL.

B5: VH single domain antibody LH1 (phage clone) (VHH)
VHH: B4 VH
notes: Human VH single domain (not camelid)
For B5, the binding result with recombinant mouse GPC2, with recombinant human GPC1 and in the assay with recombinant human GPC3 was “no binding” in each case. The “fold OD450 nm on GPC2-hFc over BSA” value in assay [5] was ≥ 5 fold.

B6: VH single domain antibody LH2 (phage clone) (VHH)
VHH: QVQLVQSGGGLVQPGGSLRLSCAASDFYFYSYEVSWVRQAPGKALEWIGYIYYSGSTTYNPSLKSRVTISRDNSKNTLYLQMNTLRAEDTAIYYCAVRDNWNDVDYWGQGTLVTVSS
notes: Human VH single domain
With B6, the binding result in the assay with recombinant mouse GPC2, with recombinant human GPC1 and with recombinant human GPC3 was “no binding” each time. Also, the “fold OD450 nm on GPC2-hFc over BSA” value in assay [5] was ≥ 5 fold.

B7: VH single domain antibody LH6 (phage clone) (VHH)
VHH: QVQLVQSGGGLVQPGGSLRLSCAASDFYFDDYEMSWVRQAPGKGLEWVSTISGSGGGTYYADSVKGRFTISRDNSKNTLYLQMNTLRAEDTATYYCARGYSYDDSRYFDYWGQGTLVTVSS
notes: Human VH single domain
B7: the binding result is “binds” with recombinant mouse GPC2, “no binding” with recombinant human GPC1 and “no binding” with recombinant human GPC3. In addition, in assay [5], the “fold OD450 nm on GPC2-hFc over BSA” value was ≥ 5 fold.

B8: VH single domain antibody LH3 (phage clone) (VHH)
VHH: QVQLVQSGGGLVQPGGSLRLSCAASSFSFADYEMSWVRQAPGKALEWIGRIYTSGSTNYNPSLKSRVTISRDNSKNTLYLQMNTLRAEDTATYYCARGYSGYDGSHYFDYWGQGTLVTVSS
notes: Human VH single domain
For the molecule B8, the binding result with recombinant mouse GPC2 and in the assay with recombinant human GPC1 was “binds” throughout. Besides, the “fold OD450 nm on GPC2-hFc over BSA” value in assay [5] was ≥ 5 fold.

B9: VH single domain antibody LH4 (phage clone) (VHH)
VHH: QVQLVQSGGGLVQPGGSLRLSCAASSFYFDDYEMSWVRQAPGKALEWIGRIYTSGSTNYNPSLKSRVTISRDNSKNTLYLQMNTLRAEDTATYYCARGYCSGGSCYFDYWGQGTLVTVSS
notes: Human VH single domain
As for B9, the binding result with recombinant mouse GPC2 is on record as “binds”; with recombinant human GPC1, “no binding”; in the assay with recombinant human GPC3, “no binding”. The “fold OD450 nm on GPC2-hFc over BSA” value in assay [5] was ≥ 5 fold.

B10: LH4-PE38 (other)
VH: B9 VHH
notes: One of the three immunotoxins of group m11; also called LH4-PE38 immunotoxin
Regarding B10, the EC50 in assay [4] came to 43.9 nM.
